The text below walks through data of patent US20130142788A1 (published 2013).

Read-outs that look alike come from different tables or passages of the source.

In assay [1] the target is T1, recombinant mature dimeric myostatin (human and mouse (mature sequences 100% …, UniProt O08689 268-376)).
T1 sequence: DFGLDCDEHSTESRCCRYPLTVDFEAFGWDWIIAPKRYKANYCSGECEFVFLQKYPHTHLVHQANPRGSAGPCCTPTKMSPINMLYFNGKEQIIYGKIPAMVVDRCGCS
The assay is described as follows: cell-based or functional assay.

For assay [2], the target named is T1, recombinant mature dimeric myostatin. The assay is described as follows: cell-based or functional assay. The source holds these as a separate data set.
Assay [3] has the same target. The assay is described as follows: cell-based or functional assay. This is another data set of the same source.
The target is the same in assay [4]. The assay is described as follows: Kinexa solution phase affinity. As to the method:
Kinexa (Sapidyne Instruments) solution phase affinity was used to determine the overall affinity for a range of anti-myostatin molecules. Myostatin beads were prepared either by adsorption (polymethylmethacrylate beads-PMMA) or amine coupling (NHS-activated sepharose beads). The range of anti-myostatin molecules studied necessitated the generation of beads coated with different concentrations of myostatin. For the solution phase portion of the assay, a fixed concentration of antibody was incubated with a broad range of myostatin concentrations and allowed to reach equilibrium by incubation at r.t. for at least 2 h before analysis proceeded. The myostatin beads were then used to determine the amount of free antibody present in the solution phase samples, by means of the free antibody binding to the myostatin bead matrix then detected using an appropriate secondary antibody (either anti-human or anti-mouse depending on the construct being tested) labelled with a fluorescent dye. The binding curves where fitted using the Kinexa Pro analysis software inherent to the machine. Multiple runs using varying starting concentrations of antibody were then compiled and analysed using the n-curve analysis software to give a more accurate determination of affinity.

Assay [5] shares this target. The assay is described as follows: myostatin competition ELISA, direct capture of myostatin, competitor 10B3. As to the method: (§1) A 96-well ELISA plate was coated at 4° C. overnight with 2.5 μg/ml polyclonal Antibody to Myostatin (R&D Systems AF788). This plate was then washed 3-times in wash buffer (PBS, 0.1% Tween-20) and blocked for 1 hour at room temperature with block solution (PBS, 0.1% Tween-20+1% bovine serum albumin [BSA]). Then, myostatin was added at 1 μg/ml in block buffer during 1 hour followed by 3-times in wash buffer. Antibodies were then titrated out to a suitable concentration range (approximately 10 to 0.01 μg/ml), added to the plate and incubated for 1 hour at room temperature. The plate was then washed 3-times in wash buffer. An anti-human kappa light chain HRP-conjugated antibody (Sigma A7164, used according to the manufacturer's instructions) was used to detect binding of humanized or chimeric antibodies, such as 10B3 chimera (HcLc) or H0L0. The plate was then washed 3-times in wash buffer and developed with an OPD substrate (according to the manufacturer's instructions) and read at 490 nm on a plate reader.
The protocol set out in 5.7 was used but the plates were initially coated at 4° C. overnight with 0.2 μg/ml of myostatin (recombinant in-house, see 1.1 above). 10B3 (final concentration of 0.3 μg/ml) was added into each well and mixed with antibodies titrated out to a suitable concentration range (approximately 10 to 0.01 μg/ml). An anti-mouse HRP-conjugated antibody (DAKO P0260, used according to the manufacturer's instructions) was used to detect binding of the 10B3 antibody.

Assay [6] shares this target. The assay is described as follows: myostatin competition ELISA, polyclonal Ab capture of myostatin, competitor 10B3. The method, then:
as §1
The protocol set out in 5.7 was used with the addition of 10B3 (final concentration of […]) to each well and mixed with the antibodies titrated out to a suitable concentration range (approximately 10 to 0.01 μg/ml). An anti-mouse HRP-conjugated antibody (DAKO P0260, used according to the manufacturer's instructions) was used to detect binding of the 10B3 antibody.
(An ELISA detects its analyte on a solid surface through an enzyme-linked reagent.)

Assay [7] has the same target. The assay is described as follows: myostatin competition ELISA, biotinylated myostatin on streptavidin, competitor 10B3. As to the method: The protocol set out in 5.7 was used but the plates were initially coated at 4° C. overnight with 5 μg/ml of streptavidin. Biotinylated myostatin was added at 0.3 μg/ml block buffer during 1 hour followed by 3-times in wash buffer. 10B3 (final concentration of 0.2 μg/ml) was added into each well and mixed with antibodies titrated out to a suitable concentration range (approximately 10 to 0.01 μg/ml). An anti-mouse HRP-conjugated antibody (DAKO P0260, used according to the manufacturer's instructions) was used to detect binding of the 10B3 antibody.

Assay [8] shares this target. The assay is described as follows: ActRIIb neutralisation ELISA: inhibition of 2 nM biotinylated myostatin binding to coated ActRIIb. As to the method:
Recombinant soluble ActRIIb (R&D Systems 339-RBB) was coated in wells of an ELISA plate at 1 μg/ml in carbonate buffer overnight at 4° C. Plates were blocked with PBS containing 0.1% tween 20 and 0.1% BSA and washed following standard ELISA protocols. In parallel, 2 nM biotinylated myostatin (in-house reagent, described above) was pre-incubated with a dilution series of the antibodies of Tables 21 and 22 for 30 minutes at 37° C. The biotinylated myostatin:antibody reactions were then added (50 μl/well) to the ActRIIb coated plate for 1 hour at 37° C. Standard wash procedures were followed prior to addition of 50 μl per well of a 1:200 diluted streptavidin-HRP conjugate (R&D Systems. #890803) followed by a further 37° C. incubation for 1 hour. Plates were again washed and assayed at absorbance 490 nm following substrate (R&D Systems, #DY999) and acid stop solution treatment.

For assay [9] the target is unchanged. The assay is described as follows: ActRIIb receptor binding assay: inhibition of biotinylated myostatin binding to coated ActRIIb. As to the method:
Recombinant soluble ActRIIb (R&D Systems 339-RBB) was coated in wells of an ELISA plate at 1 μg/ml in carbonate buffer overnight at 4° C. Plates were blocked (see Block solution above at 2.3) and washed following standard ELISA protocols. In parallel, 2 nM biotinylated myostatin (in-house, as described in 1.1, biotinylated material) was pre-incubated with an antibody dilution series consisting of 10B3, 10B3C, and a negative control (IgG1 isotype control) for 2 hours at 37° C. The biotinylated myostatin:antibody reactions were then added to the ActRIIb coated plate for 1 hour at 37° C. Standard wash procedures were followed prior to addition of 1:1000 diluted streptavidin-HRP conjugate (Dako P0397) and a further 37° C. incubation for 1 hour. Plates were again washed and assayed at absorbance 490 nm following OPD substrate (Sigma) and acid stop solution treatment. Inhibition curves and IC50 values for the inhibition of myostatin activity are shown in FIG. 5 and Table 8 respectively.

B1: H2L2-C91S_F100G_Y (antibody, IgG1)
heavy: not shown
light: DIQMTQSPSSLSASVGDRVTITCKASQDINSYLSWFQQKPGKAPKSLIYRANRLVDGVPSKFSGSGSGTDYTLTISSLQPEDFATYYCLQSDEFPLTFGQGTKLEIKRTVAAPSVFIFPPSDEQLKSGTASVVCLLNNFYPREAKVQWKVDNALQSGNSQESVTEQDSKDSTYSLSSTLTLSKADYEKHKVYACEVTHQGLSSPVTKSFNRGEC
notes: wild type IgG1 Fc
On to B1, for which the results for the “Mean IC50, A204 in vitro activity assay” value in [1] and in assay [2] were 3.64 nM and 11.1 nM, respectively. The “IC50, myostatin responsive reporter gene neutralisation assay (A204)” value in [3] turned out to be 23 nM. For the same molecule, the dissociation constant Kd in [4] was 3.68 nM. The “rank among the five most potent, top (1) to bottom (5)” value (shortened to “rank among the five most potent, top”) in assay [5] was 2 rank; in assay [6], 4 rank; in assay [7] it was 2 rank. The concentration for half-maximal inhibition (IC50) in [8] was 1.25 nM.

B2: H2L2-C91S_V102N (antibody, V domains shown)
VH: QVQLVQSGAEVKKPGASVKVSCKASGYSFTGYFMHWVRQAPGQGLEWMGNIYPYNGVSNYNQRFKARVTMTTDTSTSTAYMELRSLRSDDTAVYYCARRYYYGTGPADWYFDNWGQGTLVTVSS
VL: DIQMTQSPSSLSASVGDRVTITCKASQDINSYLSWFQQKPGKAPKSLIYRANRLVDGVPSKFSGSGSGTDYTLTISSLQPEDFATYYCLQSDEFPLTFGQGTKLEIKR
In the case of B2, the “Mean IC50, A204 in vitro activity assay” value in assay [1] turned out to be 5.51 nM. Further, the “rank among the five most potent, top” value in assay [5] was determined as 3 rank; in assay [6], 2 rank; in assay [7], 4 rank.

B3: H2L2-C91S_P100B_F (antibody, V domains shown)
VH: QVQLVQSGAEVKKPGASVKVSCKASGYSFTGYFMHWVRQAPGQGLEWMGNIYPYNGVSNYNQRFKARVTMTTDTSTSTAYMELRSLRSDDTAVYYCARRYYYGTGFADWYFDVWGQGTLVTVSS
VL: DIQMTQSPSSLSASVGDRVTITCKASQDINSYLSWFQQKPGKAPKSLIYRANRLVDGVPSKFSGSGSGTDYTLTISSLQPEDFATYYCLQSDEFPLTFGQGTKLEIKR
Regarding B3, the “Mean IC50, A204 in vitro activity assay” value in assay [1] came to 4.24 nM. Also, the “rank among the five most potent, top” value in [5] and in assay [6] was 1 rank in each case.

B4: H2L2 C91S_G55S F100G_Y (antibody)
heavy: not shown
light: DIQMTQSPSSLSASVGDRVTITCKASQDINSYLSWFQQKPGKAPKSLIYRANRLVDGVPSKFSGSGSGTDYTLTISSLQPEDFATYYCLQSDEFPLTFGQGTKLEIKRTVAAPSVFIFPPSDEQLKSGTASVVCLLNNFYPREAKVQWKVDNALQSGNSQESVTEQDSKDSTYSLSSTLTLSKADYEKHKVYACEVTHQGLSSPVTKSFNRGEC
notes: Fc not disabled
Consider B4, for which the “Mean IC50, A204 in vitro activity assay” value in assay [2] came to 4.42 nM. In addition, the half-maximal inhibitory concentration (IC50) in [9] was 0.786 nM.

B5: H2L2-C91S_P100B_I (antibody, V domains shown)
VH: QVQLVQSGAEVKKPGASVKVSCKASGYSFTGYFMHWVRQAPGQGLEWMGNIYPYNGVSNYNQRFKARVTMTTDTSTSTAYMELRSLRSDDTAVYYCARRYYYGTGIADWYFDVWGQGTLVTVSS
VL: DIQMTQSPSSLSASVGDRVTITCKASQDINSYLSWFQQKPGKAPKSLIYRANRLVDGVPSKFSGSGSGTDYTLTISSLQPEDFATYYCLQSDEFPLTFGQGTKLEIKR
Consider B5, for which, in [1], the “Mean IC50, A204 in vitro activity assay” value came out at 4.53 nM. For the same molecule, the figures for the “rank among the five most potent, top” value in assay [5] and in assay [7] were 5 rank and 3 rank, respectively.

B6: H2L2 C91S_G55S_F100G_Y-Fc disabled (antibody)
heavy: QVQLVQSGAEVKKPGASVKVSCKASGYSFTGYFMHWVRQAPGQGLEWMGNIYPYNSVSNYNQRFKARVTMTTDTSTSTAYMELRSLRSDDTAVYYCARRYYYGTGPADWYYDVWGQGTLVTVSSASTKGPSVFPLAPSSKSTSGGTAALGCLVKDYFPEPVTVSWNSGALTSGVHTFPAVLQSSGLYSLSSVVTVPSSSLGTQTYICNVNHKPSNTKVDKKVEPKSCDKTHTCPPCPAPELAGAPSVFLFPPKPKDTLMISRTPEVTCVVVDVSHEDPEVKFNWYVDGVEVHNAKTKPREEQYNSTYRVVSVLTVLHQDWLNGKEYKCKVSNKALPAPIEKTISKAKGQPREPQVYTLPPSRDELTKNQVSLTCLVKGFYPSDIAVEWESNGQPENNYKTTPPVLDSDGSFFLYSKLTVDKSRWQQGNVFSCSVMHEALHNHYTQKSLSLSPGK
light: DIQMTQSPSSLSASVGDRVTITCKASQDINSYLSWFQQKPGKAPKSLIYRANRLVDGVPSKFSGSGSGTDYTLTISSLQPEDFATYYCLQSDEFPLTFGQGTKLEIKRTVAAPSVFIFPPSDEQLKSGTASVVCLLNNFYPREAKVQWKVDNALQSGNSQESVTEQDSKDSTYSLSSTLTLSKADYEKHKVYACEVTHQGLSSPVTKSFNRGEC
notes: Fc disabled (L235A, G237A, EU); Light chain L2-C91S by the name; not restated for the disabled form
With B6, the half-inhibitory concentration (IC50) in assay [9] was determined as 0.518 nM.

B7: H2L2-C91S_V102S (antibody, V domains shown)
VH: QVQLVQSGAEVKKPGASVKVSCKASGYSFTGYFMHWVRQAPGQGLEWMGNIYPYNGVSNYNQRFKARVTMTTDTSTSTAYMELRSLRSDDTAVYYCARRYYYGTGPADWYFDSWGQGTLVTVSS
VL: DIQMTQSPSSLSASVGDRVTITCKASQDINSYLSWFQQKPGKAPKSLIYRANRLVDGVPSKFSGSGSGTDYTLTISSLQPEDFATYYCLQSDEFPLTFGQGTKLEIKR
As for B7, the “Mean IC50, A204 in vitro activity assay” value in assay [1] was 4.22 nM. The “rank among the five most potent, top” value in [5] came out at 4 rank; in assay [6] it was 3 rank; in [7] it was 1 rank.

As a reminder, the Kd is the free concentration of one partner at which half of the binding sites on the other are occupied at equilibrium, for simple one-to-one binding. One may read the IC50 as the concentration that gives 50% inhibition.
